Assay [1] deals with T1, Gαq activated with aluminum fluoride (Gαq-GDP plus aluminum fluoride) (UniProt P50148 35-359).
T1 sequence (looked up): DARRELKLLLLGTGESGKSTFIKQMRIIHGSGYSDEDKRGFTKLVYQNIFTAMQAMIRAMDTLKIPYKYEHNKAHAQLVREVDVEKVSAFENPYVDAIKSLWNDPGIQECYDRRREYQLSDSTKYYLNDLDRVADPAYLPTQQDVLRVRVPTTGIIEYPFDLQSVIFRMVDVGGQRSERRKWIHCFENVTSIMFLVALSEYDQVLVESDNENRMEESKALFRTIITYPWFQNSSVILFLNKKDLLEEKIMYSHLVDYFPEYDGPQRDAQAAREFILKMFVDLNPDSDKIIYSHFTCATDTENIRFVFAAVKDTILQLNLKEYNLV
The experiment in a line: cell-based or functional assay.

Assay [2] concerns the target chimeric form of Gαq (Gαq/i), activated with aluminum fluoride. The experiment in a line: fluorescence polarization in 384-well plates; 30 µM unlabeled 27-mer, 200 nM TAMRA-27-mer, 1.5 µM Gαq/i with aluminum fluoride; competitor: TAMRA-27-mer.
For assay [3], the target named is T1, Gαq activated with aluminum fluoride …. Description: fluorescence polarization; Gαq activated with aluminum fluoride titrated into TAMRA-labeled peptide. A general note: Polarisation of emitted light reports the rotation of a fluorescent probe.
Text: (§1) Quantification of Gαq binding to peptides corresponding to the HTH of PLβ3. […] KD and IC₅₀ values were derived from three independent experiments.
Assay [4] shares this target. The experiment in a line: fluorescence polarization competition; unlabeled PLC-β3 added to labeled 25-mer (400 nM) and Gαq (4 µM); competitor: TAMRA-25-mer.
Text: as §1

Ends that are not written are not given here.

Regarding “peptide corresponding to the HTH of PLC-β3 and containing an I860A substitution (from UniProt Q01970 852-878)”, in assay [1], the phospholipase activity of PLC-β3 activated by Gαq in lipid vesicles (IC50) was 0.1 µM.
In turn, “unlabeled 27-mer (from UniProt Q01970 852-878) (peptide)” came in with a percent decrease in fluorescence polarization in assay [2] of 50 percent.

B1: TAMRA-25-mer (25-residue peptide spanning the entire helix-turn-helix of PLC-β3, labeled with TAMRA) (peptide)
peptide: HQDYAEALINPIKHVSLMDQRARQL
modifications: also: TAMRA label, position not given here
notes: also called labeled 25-mer; 25 residue peptide of PLC-β3
With B1, the “phospholipase activity of PLC-beta3 activated by G-alpha-q in lipid vesicles, as a function of TAMRA-25-mer concentration (IC50)” value in assay [1] was roughly 1 microMolar. Moreover, in assay [3], the equilibrium dissociation constant (Kd) (in general, the constant that tells how readily two partners part at equilibrium) is roughly 6 µM.

B2: full-length PLC-β3 (wild type) (enzyme, UniProt Q01970 2-1234, looked up)
chain: AGAQPGVHALQLEPPTVVETLRRGSKFIKWDEETSSRNLVTLRVDPNGFFLYWTGPNMEVDTLDISSIRDTRTGRYARLPKDPKIREVLGFGGPDARLEEKLMTVVSGPDPVNTVFLNFMAVQDDTAKVWSEELFKLAMNILAQNASRNTFLRKAYTKLKLQVNQDGRIPVKNILKMFSADKKRVETALESCGLKFNRSESIRPDEFSLEIFERFLNKLCLRPDIDKILLEIGAKGKPYLTLEQLMDFINQKQRDPRLNEVLYPPLRPSQARLLIEKYEPNQQFLERDQMSMEGFSRYLGGEENGILPLEALDLSTDMTQPLSAYFINSSHNTYLTAGQLAGTSSVEMYRQALLWGCRCVELDVWKGRPPEEEPFITHGFTMTTEVPLRDVLEAIAETAFKTSPYPVILSFENHVDSAKQQAKMAEYCRSIFGDALLIEPLDKYPLAPGVPLPSPQDLMGRILVKNKKRHRPSAGGPDSAGRKRPLEQSNSALSESSAATEPSSPQLGSPSSDSCPGLSNGEEVGLEKPSLEPQKSLGDEGLNRGPYVLGPADREDEEEDEEEEEQTDPKKPTTDEGTASSEVNATEEMSTLVNYIEPVKFKSFEAARKRNKCFEMSSFVETKAMEQLTKSPMEFVEYNKQQLSRIYPKGTRVDSSNYMPQLFWNVGCQLVALNFQTLDVAMQLNAGVFEYNGRSGYLLKPEFMRRPDKSFDPFTEVIVDGIVANALRVKVISGQFLSDRKVGIYVEVDMFGLPVDTRRKYRTRTSQGNSFNPVWDEEPFDFPKVVLPTLASLRIAAFEEGGKFVGHRILPVSAIRSGYHYVCLRNEANQPLCLPALLIYTEASDYIPDDHQDYAEALINPIKHVSLMDQRARQLAALIGESEAQAGQETCQDTQSQQLGSQPSSNPTPSPLDASPRRPPGPTTSPASTSLSSPGQRDDLIASILSEVAPTPLDELRGHKALVKLRSRQERDLRELRKKHQRKAVTLTRRLLDGLAQAQAEGRCRLRPGALGGAADVEDTKEGEDEAKRYQEFQNRQVQSLLELREAQVDAEAQRRLEHLRQALQRLREVVLDANTTQFKRLKEMNEREKKELQKILDRKRHNSISEAKMRDKHKKEAELTEINRRHITESVNSIRRLEEAQKQRHDRLVAGQQQVLQQLAEEEPKLLAQLAQECQEQRARLPQEIRRSLLGEMPEGLGDGPLVACASNGHAPGSSGHLSGADSESQEENTQL
notes: mature; also called PLC-beta3; unlabeled PLC-β3
For the molecule B2, in assay [4], the concentration for half-maximal inhibition (IC50) (in general, the concentration that inhibits the measured activity by half) was roughly 1 µM.

Source of the values: patent publication US20150218538A1 (UNIVERSITY OF NORTH CAROLINA AT CHAPEL HILL, published 2015).
